T1: Noggin/Fc
T1 construct: Bought (R&D systems); construct not described; also called Noggin-Fc fusion protein
T1 sequence (Q13253 whole entry, species assumed, looked up): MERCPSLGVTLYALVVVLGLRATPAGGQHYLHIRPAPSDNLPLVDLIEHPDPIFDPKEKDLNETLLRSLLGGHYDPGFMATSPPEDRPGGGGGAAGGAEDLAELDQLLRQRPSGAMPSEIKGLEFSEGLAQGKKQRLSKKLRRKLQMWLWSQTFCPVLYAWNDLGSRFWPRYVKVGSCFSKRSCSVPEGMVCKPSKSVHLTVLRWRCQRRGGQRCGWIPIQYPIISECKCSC


Experiments:
Chordin CR1 [1] = biological target: T2, Chordin CR1; assay: BIAcore, immobilised Chordin CR1, BMP-2 as analyte
T2 construct: domain: CR1; also called Chordin domain CR1
Experimental: (§1) Proteins were biotinylated and immobilised to streptavidin-coated sensor chip CM5 (Kirsch et al., 2000a). The extracellular domain of BRIA, BRIB and ARII were prepared as described (Kirsch et al., 2000a). […] Interaction with analyte was measured on a BIAcore 2000 system (Kirsch et al., 2000a). Evaluation of sensorgrams (Biaevaluation software 2.0) yielded kinetic constants for complex formation (kₒₙ) and dissociation (koff). […] Apparent dissociation constants KD were either calculated as KD=koff/kₒₙ or by evaluating dose dependency of equilibrium binding.

[2] = biological target: T3, BRIBEC, extracellular domain of BMPR-IB; assay: BIAcore, immobilised BRIB ectodomain, BMP-2 as analyte
T3 construct: extracellular domain; Biotinylated, immobilised on a streptavidin chip; also called BRIB receptor
T3 sequence (P36898 14-126): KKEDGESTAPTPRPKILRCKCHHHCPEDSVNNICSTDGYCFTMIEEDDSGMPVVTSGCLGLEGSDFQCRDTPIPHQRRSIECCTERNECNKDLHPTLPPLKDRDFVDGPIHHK
Experimental: as §1

Gremlin [3] = biological target: T4, Gremlin; assay: BIAcore, immobilised Gremlin, BMP-2 as analyte
T4 construct: Bought (R&D systems)
T4 sequence (O70326 25-184): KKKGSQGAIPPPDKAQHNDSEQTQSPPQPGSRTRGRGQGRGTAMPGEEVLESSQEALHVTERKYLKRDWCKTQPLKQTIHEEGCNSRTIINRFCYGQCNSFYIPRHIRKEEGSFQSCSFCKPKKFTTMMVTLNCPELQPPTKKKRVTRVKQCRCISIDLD
Experimental: as §1

[4] = biological target: T5, Activin receptor II ectodomain; assay: BIAcore, immobilised ARII ectodomain, BMP-2 as analyte
T5 construct: extracellular domain; Biotinylated, immobilised on a streptavidin chip; also called ARII; type II receptor ARII
T5 sequence (P27037 20-135): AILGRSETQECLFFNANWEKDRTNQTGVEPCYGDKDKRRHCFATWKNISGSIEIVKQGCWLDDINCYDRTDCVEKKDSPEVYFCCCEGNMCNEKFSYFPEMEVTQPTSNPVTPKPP
Experimental: as §1

Chordin CR3 [5] = biological target: T6, Chordin CR3; assay: BIAcore, immobilised Chordin CR3, BMP-2 as analyte
T6 construct: domain: CR3; also called Chordin domain CR3
Experimental: as §1

[6] = biological target: BRIA receptor on C2C12 and ATDC5 cells; assay: cell-based or functional assay
[7] = biological target: T5, Activin receptor II ectodomain; assay: BIAcore, immobilised ARII ectodomain, mutein as analyte, against BMP-2 wild type
Experimental: as §1

[8] = biological target: T3, BRIBEC, extracellular domain of BMPR-IB; assay: BIAcore, immobilised BRIB ectodomain, mutein as analyte, against BMP-2 wild type
Experimental: as §1

Chordin CR3 [9] = biological target: T6, Chordin CR3; assay: BIAcore, immobilised Chordin CR3, mutein as analyte, against BMP-2 wild type
Experimental: as §1

Chordin CR1 [10] = biological target: T2, Chordin CR1; assay: BIAcore, immobilised Chordin CR1, mutein as analyte, against BMP-2 wild type
Experimental: as §1

Noggin/Fc [11] = biological target: T1, Noggin/Fc; assay: BIAcore, immobilised Noggin
Experimental: as §1

Gremlin [12] = biological target: T4, Gremlin; assay: BIAcore, immobilised Gremlin, mutein as analyte, against BMP-2 wild type
Experimental: as §1

Noggin/Fc [13] = biological target: T1, Noggin/Fc; assay: BIAcore, immobilised Noggin, mutein as analyte, against BMP-2 wild type
Experimental: as §1

Binder | ED50 of induction of alkaline phosphatase (ALP) activity in ATDC5 cells [6] | ED50 of induction of alkaline phosphatase (ALP) activity in C2C12 cells [6] | KD(Mut)/KD(WT) [7] | KD(Mut)/KD(WT) [8] | further results
BMP-2 wild type (ligand, also called hBMP-2; human BMP-2) QAKHKQRKRLKSSCKRHPLYVDFSDVGWNDWIVAPPGYHAFYCHGECPFPLADHLNSTNHAIVQTLVNSVNSKIPKACCVPTELSAISMLYLDENEKVVLKNYQDMVVEGCGCR | 8 nM | 25 nM | – | – | Kd (Chordin CR1 [1]): 61 nM; Kd [2]: 3.6 nM; Kd (Gremlin [3]): 22 nM; Kd [4]: 14 nM; Kd (Chordin CR3 [5]): 67 nM
BMP-2 W28F (ligand, also called W28F mutein) QAKHKQRKRLKSSCKRHPLYVDFSDVGFNDWIVAPPGYHAFYCHGECPFPLADHLNSTNHAIVQTLVNSVNSKIPKACCVPTELSAISMLYLDENEKVVLKNYQDMVVEGCGCR | – | – | 1.2 ratio | 1.7 ratio | –
BMP-2 S69R (ligand, also called S69R mutein) QAKHKQRKRLKSSCKRHPLYVDFSDVGWNDWIVAPPGYHAFYCHGECPFPLADHLNSTNHAIVQTLVNRVNSKIPKACCVPTELSAISMLYLDENEKVVLKNYQDMVVEGCGCR | – | – | 0.9 ratio | – | –
BMP-2 D53A (ligand) QAKHKQRKRLKSSCKRHPLYVDFSDVGWNDWIVAPPGYHAFYCHGECPFPLAAHLNSTNHAIVQTLVNSVNSKIPKACCVPTELSAISMLYLDENEKVVLKNYQDMVVEGCGCR | – | – | 1.2 ratio | 0.34 ratio | –
BMP-2 L51P (ligand, also called L51P mutein; BMP-2 proline mutein L51P) QAKHKQRKRLKSSCKRHPLYVDFSDVGWNDWIVAPPGYHAFYCHGECPFPPADHLNSTNHAIVQTLVNSVNSKIPKACCVPTELSAISMLYLDENEKVVLKNYQDMVVEGCGCR | > 1500 nM | > 1600 nM | 2.3 ratio | – | KD(mut)/KD(WT) (Chordin CR3 [9]): 0.9 ratio; KD(mut)/KD(WT) (Chordin CR1 [10]): 0.85 ratio; Kd (Noggin/Fc [11]): 0.5 nM; KD(mut)/KD(WT) (Gremlin [12]): 0.55 ratio; KD(mut)/KD(WT) (Noggin/Fc [13]): 0.27 ratio
BMP-2 D53P (ligand, also called BMP-2 proline mutein D53P) QAKHKQRKRLKSSCKRHPLYVDFSDVGWNDWIVAPPGYHAFYCHGECPFPLAPHLNSTNHAIVQTLVNSVNSKIPKACCVPTELSAISMLYLDENEKVVLKNYQDMVVEGCGCR | 140 nM | 330 nM | 1.2 ratio | 10 ratio | KD(mut)/KD(WT) (Chordin CR3 [9]): 1.1 ratio; KD(mut)/KD(WT) (Chordin CR1 [10]): 0.7 ratio; Kd (Noggin/Fc [11]): 2.5 nM; KD(mut)/KD(WT) (Gremlin [12]): 0.7 ratio; KD(mut)/KD(WT) (Noggin/Fc [13]): 1.3 ratio
BMP-2 Y103A (ligand) QAKHKQRKRLKSSCKRHPLYVDFSDVGWNDWIVAPPGYHAFYCHGECPFPLADHLNSTNHAIVQTLVNSVNSKIPKACCVPTELSAISMLYLDENEKVVLKNAQDMVVEGCGCR | – | – | 1.4 ratio | 3.2 ratio | –

— patent publication US20070293425A1 (JULIUS MAXIMILIANS UNIVERSITAT WURZBURG, published 2007)
